# Assay results taken from the nanobody polyreactivity screen of Harvey et al. (2022).
# Experiment: yeast display, Sf9 membrane polyspecificity reagent, FACS + sequencing; frameworks hold sequencing errors
# Method in brief: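 A synthetic nanobody library was expressed on Saccharomyces cerevisiae BJ5465 by galactose induction for 36–48 hours. The library was stained for 1 hour at 4 °C with 10% biotinylated, detergent-solubilized Sf9 membrane reagent and enriched with streptavidin microbeads before FACS. Low and high (top ~1%) gates were set on anti-HA fluorescence for expression and streptavidin fluorescence for reagent binding, and each polyreactivity label reflects the gate of origin.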
row,Sequence,polyreactivity (PSR sort gate)
1,QVQLVESGGGLVQAGGSLRLTCAASGSTFYRYAMGWYRQAPGKERELVAAISTSGGRTYYADSVKGRFTISRDNAKNTVYLQMNSLKPEDTAVYYCAADQYRYYRSTYDYWGQGTQVTVSS,high polyreactivity
2,QVQLVESGGGLVQAGGSLRLTCAASGSTFYVYAMGWYRQAPGKERELVAAIDDSGDRTYYADSVKGRFTISRDNAKNTVYLQMNSLKPEDTAVYYCAAEYDSWEYDYWGQGTQVTVSS,low polyreactivity
3,QVQLVESGGGLVQAGGSLRLTCAASGSTYTGYAMGWYRQAPGKERELVAAISISGGRTFYADSVKGRFTISRDNAKNTVYLQMNSLKPEDTAVYYCAAYLRGSKYSFDYWGQGTQVTVSS,high polyreactivity
4,QVQLVESGGGLVQAGGSLRLTCAASGYIFGVYAMGWYRQAPGKERELVATISSGGSTNYADSVKGRFTISRDNAKNTVYLQMNSLKPEDTAVYYCAAERYWTYYSGFVYGGDNYWGQGTQVTVSS,low polyreactivity
5,QVQLVESGGGLVQAGGSLRLTCAASGYIFNQYTMGWYRQAPGKERELDADISSGGSTKYADSVKVRFTISRDNAKNTVYLQMISRKAEDTAFYYCNAEYVYGYPTAYDWEYDYWGQGTQVTLSS,high polyreactivity
6,QVQLVESGGGLVQAGGSLRLTCAASGYIQPKNTMGWYRQAPGKERELVAAISWSGGSTFYADSVKGRFTISRDNAKNTVYLKMNSLKPVDTAVYYCAADRSWSWYYRYDYWGQGTQVTLSS,low polyreactivity
7,QVQLVESGGGLVQAGGSLRLTCAASGYTIIQYAMGWYRQAPGKERELVAGITWSGGSTYADSVKGRFTISRDNAKNTVYLQMNSLKPEATAVYYCAADDRDIYQYGTPYGSGIRYDYWGQGTQVTVSS,low polyreactivity
8,QVQLVESGGGLVQAGGSLRLTCAATGSTLYFYAMGWYRQAPGKERELVASISGTGGRTDYADSVKGRFTISRDNAKNTVYLQMNSLKPEDTAVYYCAADLIRRYGDGYWGQGTQVTVSS,high polyreactivity
9,QVQLVESGGGLVQAGGSLRLTCAPSRSIFVAYTMGWYRQAPGKERELVAAISRGGSTNYADSVKGRFTISRDNAKNTVYLQMNSLTPEETAVYYCAAKVWDGQLLYYWGQGTQVTVSS,low polyreactivity
10,QVQLVESGGGLVQAGGSLRLTCASSGITFGSYAMGWYTQAPGKERELVAAITWRGGSTFYADSVKGRFTISRDNAKITVYLQMNSLKPEDTAVYYCAATLTKYLPRYYWGHGTQVTVSS,low polyreactivity
11,QVQLVESGGGLVQAGGSLRLTCGASGFTFDSYAMGWSRQEPGKERELVAAISTIGGRTYYADSVKGRFTISRDNAKNTVYLQMNSLKPEDTAVYYCAAEQGTPSTNWYDYWGQGTQVTVSS,low polyreactivity
12,QVQLVESGGGLVQAGGSLRLTCGASGRIFRGYAMGCSRQAPGKERELVASISGGDSTYADSVKGRYTISRDNAKNTVYLQINSLKPEDTSVYYWAASSWYPALREYWGQGTQVSVSS,low polyreactivity
13,QVQLVESGGGLVQAGGSLRLTCPASGSTFHGYDMGCYRQAPGKERELVAAITSSGDDTYYADSVKGRFTISRDNAKNTVYLQMNSLKPEDTAVYYCAAEYTEGYTHDYWGQGSQVTVSS,low polyreactivity
14,QVQLVESGGGLVQAGGSLRLTCSASGSTFPSNSMGGYRQAPGKERELVAAITFRGGRTYYADSVKGRFTISRDNAKNTVYLQMNSLIPEDTAVYYCAAERWWYTVRGYGYWGQGTQVTVSS,high polyreactivity
15,QVQLVESGGGLVQAGGSLRLTFAASGSTFDYYAMGWYRQAPGKERELVAGITSDGSTYYADSVKGRFTISRDNAKNTVYLQMNSLKPEDTAVYYCDVDVDPVFYTTYYYSYYYWGQGTQVTVSS,low polyreactivity
16,QVQLVESGGGLVQAGGSLRLTSAASGRTFTSNVMGWYSQAPGKEWEVVAAISSSGGRTYYADSVKGRFTISRDNAKNTVYLQMNSLKPEDTAVYYCAGDGDPEYPRYGYWGKGTQVTVSS,high polyreactivity

row,Sequence,polyreactivity (PSR sort gate)
1,QVQLVESGGGLVQAGGSLRLTSAASGSTIDYYAMGWYRQAPGKERELVARISKRGGSTYYADSVKGRFTISRDNAKYTVYLQMNSLKPEDTAVYFCAKRVRISYTNYHFDYWGQCTQVTVSS,high polyreactivity
2,QVQLVESGGGLVQAGGSLRRSCAASGSTFTTYAMGWYRQAPGKERELGAAITSVGSTYYEDSVKGRCTISRDNAKNTVYLQLNSLKPEDTAVYYCNVVYRDQYNDWGQGTQVTVSW,low polyreactivity
3,QVQLVESGGGLVQAGGSLRSSCAASGGTFYGYAMGWYRQAPGKERELVAAISFSGGRTYYADSVKGSFTISRDNAKNTVYLQMNSLKPEDTAVYYCAALRRYPRPNIYGYWGQGTQVTVSS,low polyreactivity
4,QVQLVESGGGLVQAGGSLRVICAASGSTFSGNAMGWSRKAPGKERELVAAISRRGGRTYYADSVKGRFTISRDNAKNTVFLQMNRLKPEDTAVYYCAATSGVYRVGIIKYDYWGQGTQVTVSS,high polyreactivity
5,QVQLVESGGGLVQAGGSLRVSCAASGFISGYYTMRWYRQAPGKEWELVAVINSGGSTYYADSVKGRFTISRDNAKNTVYLQMNSLKPEDTAVYYCAKLGGKYSRYYYWGQGTQVTVSS,low polyreactivity
6,QVQLVESGGGLVQAGGSLRVSCAASGFTFNYYAMGWYRQAAGKERELVAAISKDGTRTYYADSVKGRFTISRDNAKNTVYLQMNRQKPEDTAVYYCAAKASPAGSNYWGQGTQVTVSS,high polyreactivity
7,QVQLVESGGGLVQAGGSLRVSCAASGFTFSYYVMGWYRQAPGKERELVAAITTSGSGTYYADSVKGRFTISRDNAKNTVYLQMNSLKPEDTAVYYCAARPYRGFVSRYGYWGQGTQVTVSS,low polyreactivity
8,QVQLVESGGGLVQAGGSLRVSCAASGFTFVGTAMGWYRQAPGKERELVAAITWSGGRTYYADSVKGRFTISRDKAKNTVYLQMNSLTPEDTAVYYCATRWRGRMDYWGQGTQVTVSS,high polyreactivity
9,QVQLVESGGGLVQAGGSLRVSCAASGGTFCNYAMGWNRQAPGKERELVAAITSGGGSTYYADSVKGRFTISRDIAKNTVYLQMNSLKPEDTAVYYCAARRSSYGYWGQGTQVTVSS,high polyreactivity
10,QVQLVESGGGLVQAGGSLRVSCAASGITFNEYAMGWYRQAPGKEREFVAAITFSGDSTYADSVKGRFTISRDNAKNTVYLQMNSLKPEDTAVYYCAKRGGRQTYYYWGQGTQVTVSS,high polyreactivity
11,QVQLVESGGGLVQAGGSLRVSCAASGLNFYGNAMGWYRQAPGKERELVAAISWSGGNTSYADSVKGRFTISRDNAKNTVYLQMNSLKPDDTAVYYCNADSLPSVERYGYWGQGTQVTVSS,low polyreactivity
12,QVQLVESGGGLVQAGGSLRVSCAASGLTFKYNALGWYIQAPGKERELVASISSGSTNYADSVKGRFTISRDNAKNSVYLEMNSLKPEDTSVYYCAASVSRGKRFRYGYVFKMDYWGQGTQLTVSS,low polyreactivity
13,QVQLVESGGGLVQAGGSLRVSCAASGNIFYYYAKGWSRQAPGKERELDAAISKRGGSTYYADSVKGRFTISRDIAKNTVYLQMNSLKTEVTAVYYCAADGGYADYDYWGQGTQVTVSS,high polyreactivity
14,QVQLVESGGGLVQAGGSLRVSCAASGRIFFRNAMGWYRQAPGKESELVAAITRGGGSTYYADSVKGRFTISRDNATNTVYLQMNSLKPEDTEVYYCAAGAGYSLYSAYDYWGQGTQVTVSS,low polyreactivity
15,QVQLVESGGGLVQAGGSLRVSCAASGRIFTQYATGWYRQAPAKEREMVAAINASDGSTYADSVKGRFTISRDNAKNSVYVQMNSLNPEDSAVYYCNVTGGPYDFTRWSDFDHWGQGTQVTVSS,low polyreactivity
16,QVQLVESGGGLVQAGGSLRVSCAASGRILNPNAMGWYRQAPGKERELVADISSGGSTYADSVKGRFTISRDNAKNTVYLQMNSLKPEDTAVYYCAKPGYEEFYREYDSWGQGTQVNVSS,low polyreactivity
